From patent US20120231021A1 (GREEN CROSS, published 2012)
Positions count from the first letter of the chain named. Each block holds one binder with its values, some of them ahead of it.

Assays:
[1] = biological target: T1, epidermal growth factor receptor (EGFR) on tumor cells (A431 epidermoid carcinoma cells); MDA-MB-231 breast … (UniProt P00533 25-1210, limits assumed); experiment: flow cytometry on A431 cells, 10 µg antibody
T1 construct: whole, on cells; Endogenous receptor of the cell lines; also called EGFR overexpressed in a cancer cell line (A431); EGFR in A431 cells

[2] = biological target: T2, epidermal growth factor receptor (EGFR) (Sigma, U.S), purified protein (UniProt P00533 25-1210, limits assumed); experiment: competitive ELISA, EGFR-coated plate with soluble EGFR as competitor (FIG. 9)
T2 construct: also called EGFR antigen
Protocol: 100 μL of EGFR (Sigma, U.S) at a 2 μg/mL dilution in PBS was added to each well of a plate and incubated overnight at 4° C. Each well was washed once with PBST, 300 μL of 1% BSA-PBS solution was added to each well, and stored for 1 hour at room temperature.
2 μg of EGFR was diluted by a two-fold and 10 μL of the diluted EGFR was added to each well of the plate. Then, 90 μL of the antibody diluted to the optimum concentration determined in (1) was added to each well, incubated for 2 hours at room temperature, and washed 4 times with PBST.

binding result [1]: binds
B1: human antibody ER2 (antibody, V domains shown)
VH: EVQLVESGGGVVQPGGSLRLSCAASGFTFSDYDMSWIRQAPGKGLEWVSGILGGSERSYYRDSVKGRFTISRDNSRKTLYLQMNSLRAEDTAVYYCARHGSPGYTLYAWDYWGQGTTVTVSS
VL: DIVMTQTPLSLPVTPGEPASISCRSNQDLTHSNGNTYLEWYLQKPGQSPRLLIYKVSNRFSGVPDRFSGSGAGTDFTLRISRVEAEDVGVYYCMQGTHWPWTFGQGTKVDIKR
notes: also called ER2 antibody

fold lower affinity than C225 [2]: 2 times
percent of affinity relative to C225 and M96 [2]: ~63%
B2: human antibody ER79 (antibody, V domains shown)
VH: B1 VH
VL: B1 VL with N26S, D28S, L29V, T30D, H31M, S32G, N33I, T36N
notes: also called ER79 antibody
